Assay: Enzyme activity assay (MPT S-oxidase activity of expressed FMO1 polypeptides in Sf-9 cell microsomes)
Assay type: biochemical, dog
Conditions: 25 ug Sf-9 cell microsomal protein, 1 mM NADPH, 0.1 M tricine, 37° C., 10 minutes, HPLC detection of MPT sulfoxide at 240 nm
Experimental: Examples of particular variants of polypeptides of the invention include polypeptide of SEQ ID NO: 2 and SEQ ID NO: 4. […] This enzyme assay represents a single known method for the detemination of enzyme activity of various FMOs. Briefly, the methyl-p-tolyl (MPT) S-oxidase activity of the expressed variants of the polypeptide was assayed as a measure of FMO function. […] Incubations included 25 ug of Sf-9 cell (containing the polypeptide) microsomal protein 1 mM NADPH, and 0.1 M tricine. Incubations were started by the addition of MPTS and were conducted at 37° C. for at least 10 minutes. Following termination of the incubation, the supernatant was analyzed by high performance liquid chromatography and the MPT sulfoxide product was detected by absorbance at 240 nm and quantitated using an authentic standard of the sulfoxide metabolite.
An achiral assay method was conducted according to the data sheets provided by Gentest, with some modifications. Based on preliminary determinations of the linearity of metabolite formation with protein concentration and incubation time, incubation conditions were established using 50 μg (tissue microsomes) or 25 μg (Sf-9 cell microsomes) protein, 1 mM NADPH, and 0.1 M tricine in a total volume of 0.25 ml. Samples were incubated for 3 min at 37° C. followed by the addition of substrate (in 1% methanol) to start the reaction. Incubations were terminated after 10 minutes by the addition of 50 μl of acetonitrile, and samples were centrifuged to precipitate protein. The supernatant was analyzed by HPLC, using a 4.6 ×250 mm 5 micron C18 analytical column (Luna™C18(2), Phenomenex, Torrance Calif.) and a 1 ml/min gradient elution of 40:60/methanol:water to 60:40/methanol/water over 8 minutes, followed by substrate elution with 95% methanol. The MPT sulfoxide product was detected by absorbance at 240 nm and quantitated using the authentic standard. Imipramine N-oxidation was measured by substrate-dependent oxidation of NADPH at 340 nm Wyatt et al., 1998, using 25-50 μg of microsomal protein in a total volume of 750 μl.

Molecule | enzyme activity (MPT S-oxidase activity as a measure of FMO function)
SEQ ID NO: 2: Amino acid sequence of a variant of dog wild-type FMO1 (protein, listed as Canis familiaris) MAKRVAIVGAGVSGLASIKCCLEEGLEPTCFERSDDLGGLWRFTEHVEGGRASLYKSVVSNSCKEMSCYSDFPFPEDYPNYVPNSQFLEYLKMYANRFSLLKCIRFKTKVCKVTKCPDFTVTGQWEVVTQHEGKQESAIFDAVMVCTGFLTNPHLPLDCFPGINTFKGQYFHSRQYKHPDIFKDKRVLVIGMGNSGTDIAVETSRLAKKVFLSTTGGAWVMSRVFDSGYPWDVVFMTRYQNMFRNSLSTPIVTWLMARKMNSWFNHANYGLVPEDRTQLREPVLNDELPGCIITGKVLIKPSIKEVKENSVVFNNTPKEEPIDIIVFATGYTFAFPFLDETVVKVENGQASLYKYIFPVHLPKPTLAVIGLIKPLGSMIPTGETQARWAVRVLKGINKLPPQSAMTEEVNARKENKPSGFGLCYCKALQSDYITYIDELLTNINAKPNLFSLPLTDPRLALTTFFGPCTPYQFRLTGPGKWKGARNAILTQWDRTFKVTKTRIVQESPTPFASLLKLLSLLALLMAIFQIFL | inactive
SEQ ID NO: 6: Amino acid sequence of dog wild-type FMO1, expressed using a baculovirus expression system in insect cells (protein, listed as Canis familiaris) MAKRVAIVGAGVSGLASIKCCLEEGLEPTCFERSDDLGGLWRFTEHVEEGRASLYKSVVSNSCKEMSCYSDFPFPEDYPNYVPNSQFLEYLKMYANRFSLLKCIRFKTKVCKVTKCPDFTVTGQWEVVTQHEGKQESAIFDAVMVCTGFLTNPHLPLDCFPGINTFKGQYFHSRQYKHPDIFKDKRVLVIGMGNSGTDIAVETSRLAKKVFLSTTGGAWVMSRVFDSGYPWDMVFMTRFQNMFRNSLPTPIVTWLMARKMNSWFNHANYGLVPEDRTQLREPVLNDELPGCIITGKVLIKPSIKEVKENSVVFNNTPKEEPIDIIVFATGYTFAFPFLDETVVKVENGQASLYKYIFPVHLPKPTLAVIGLIKPLGSMIPTGETQARWAVRVLKGINKLPPQSAMTEEVNARKENKPSGFGLCYCKALQSDYITYIDELLTNINAKPNLFSLLLTDPRLALTIFFGPCTPYQFRLTGPGKWKGARNAILTQWDRTFKVTKTRIVQESPTPFASLLKLLSLLALLMAIFLIFL | active
SEQ ID NO: 4: Amino acid sequence of another variant of dog wild-type FMO1 (protein, listed as Canis familiaris) MAKRVAIVGAGVSGLASIKCCLEEGLEPTCFERSDDLGGLWRFTEHVEEGRASLYKSVVSNSCKEMSCYSDFPFPEDYPNYVPNSQFLEYLKMYANRFSLLKCIRFKTKVCKVTKCPDFTVTGQWEVVTQHEGKQESAIFDAVMVCTGFLTNPHLPLDYFPGINTFKGQYFHSRQYKHPDILKDKRVLVIGMGNSGTDIAVETSRLAKKVFLSTTGGAWVMSRVFDSGYPWDMVFMTRFQNMFRNSLPTPIVTWLMARKMNSWFNHANYGLVPEDRTQLREPVLNDELPGCIITGKVLIKPSIKEVKENSVVFNNTPKEEPIDIIVFATGYTFAFPFLDETVVKVENGQASLYKYIFPVHLPKPTLAVIGLIKPLGSMIPTGETQARWAVRVLKGINKLPPQSAMTEEVNARKENKPSGFGSCYCKALQSDYITYIDELLTNINAKPNLFSLLLTDPRLALTIFFGPCTPYQFRLTGPGKWKGARNAILTQWDRTFKVTKTRIVQESPTPFASLLKLLSLLALLMAIFQIFL | inactive
